The target of this experiment is human FcμR on BW5147 T cell transductants (human) (UniProt O60667). Briefly: radioligand binding.

The values that follow come from PMC2806608.

UniProt O60667, sequence (O60667 17-390): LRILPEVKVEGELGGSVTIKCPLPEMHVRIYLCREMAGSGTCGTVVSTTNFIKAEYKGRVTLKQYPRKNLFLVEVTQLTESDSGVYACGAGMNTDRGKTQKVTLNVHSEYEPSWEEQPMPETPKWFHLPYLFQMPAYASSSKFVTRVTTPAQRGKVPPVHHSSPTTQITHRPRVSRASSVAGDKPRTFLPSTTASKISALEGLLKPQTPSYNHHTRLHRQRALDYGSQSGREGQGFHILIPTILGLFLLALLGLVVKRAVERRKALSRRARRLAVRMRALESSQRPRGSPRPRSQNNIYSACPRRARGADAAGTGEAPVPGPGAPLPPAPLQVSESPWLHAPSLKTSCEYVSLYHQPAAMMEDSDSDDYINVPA

What is called Kd is the equilibrium constant for the complex coming apart. A low value points to tighter binding. Take “^125I-labeled human IgM myeloma protein (antibody)”: the Kd came to 10.8 nM.
